Source: patent publication US20250276092A1 (Regeneron, published 2025)

Key:
[1] = target: T1, monkey CD40 extracellular domain expressed with a C-terminal myc-myc-hexahistidine tag (monkey); experiment: SPR 25C, captured mAb
T1 construct: also called mfCD40-MMH; REGN3097
T1 chain: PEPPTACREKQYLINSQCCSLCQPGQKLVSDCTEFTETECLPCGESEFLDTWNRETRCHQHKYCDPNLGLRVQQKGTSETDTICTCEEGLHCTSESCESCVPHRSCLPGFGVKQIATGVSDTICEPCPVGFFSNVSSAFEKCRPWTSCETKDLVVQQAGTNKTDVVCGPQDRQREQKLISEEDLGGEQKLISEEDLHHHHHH
Procedure: (§1) The equilibrium dissociation constants (KD) for anti-CD40 bivalent and bispecific monoclonal antibodies (mAbs) were determined using a real-time surface plasmon resonance (SPR)-based Biacore 4000 biosensor. All binding studies were performed in 10 mM HEPES, 150 mM NaCl, 3 mM EDTA, and 0.05% v/v surfactant Tween-20, pH 7.4 (HBS-ET) running buffer at 25° C. and 37° C. The Biacore CM5 sensor surface was first derivatized by amine coupling with a monoclonal mouse anti-human Fc antibody (REGN2567) to capture anti-CD40 bivalent parental and anti-CD40×CD40 bispecific antibodies. Different concentrations of CD40 reagents, human CD40 extracellular domain expressed with a C-terminal myc-myc-hexahistidine tag (“hCD40-MMH”; REGN3094; SEQ ID NO: 53), monkey CD40 extracellular domain expressed with a C-terminal myc-myc-hexahistidine tag (“mfCD40-MMH”; REGN3097; SEQ ID NO: 54), and mouse CD40 extracellular domain expressed with a C-terminal myc-myc-hexahistidine tag (“mCD40-MMH”; REGN3098; SEQ ID NO: 55), at concentrations ranging from 3.7 nM to 100 nM or 3.3 nM to 90 nM in a series of 3-fold dilutions prepared in HBS-ET running buffer were injected at a flow rate of […] for 4 minutes or […] for 5 minutes. The dissociation of different CD40 reagents bound to anti-CD40 bivalent parental and anti-CD40×CD40 bispecific antibodies was monitored for 10 minutes in HBS-ET running buffer. At the end of each cycle, the anti-CD40 bivalent parental and anti-CD40×CD40 bispecific antibodies capture surface was regenerated using a 12 sec injection of 20 mM H₃PO₄.
(§2) The association rate (ka) and dissociation rate (kd) were determined by fitting the real-time binding sensorgrams to a 1:1 binding model with mass transport limitation using Scrubber 2.0c curve-fitting software. Binding dissociation equilibrium constant (KD) and dissociative half-life (t½) were calculated from the kinetic rates as: KD (M)=kd/kₐ, and t_{1/2} (min)=[ln(2)/(60*kd)].

[2] = target: T2, mouse CD40 extracellular domain expressed with a C-terminal myc-myc-hexahistidine tag (mouse); experiment: SPR 25C, captured mAb
T2 construct: also called mCD40-MMH; REGN3098
T2 chain: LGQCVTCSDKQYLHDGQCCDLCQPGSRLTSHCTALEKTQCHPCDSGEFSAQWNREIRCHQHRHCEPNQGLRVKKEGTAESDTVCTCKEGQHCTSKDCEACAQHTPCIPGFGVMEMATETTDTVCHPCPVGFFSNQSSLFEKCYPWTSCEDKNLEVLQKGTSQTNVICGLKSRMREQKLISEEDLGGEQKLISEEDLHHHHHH
Procedure: as §1, §2

[3] = target: T3, human CD40 extracellular domain expressed with a C-terminal myc-myc-hexahistidine tag (human); experiment: SPR 25C, captured mAb
T3 construct: also called hCD40-MMH; hCD40-mmH
Procedure: as §1, §2

[4] = target: T2, mouse CD40 extracellular domain …; experiment: SPR 37C, captured mAb
Procedure: as §1, §2

[5] = target: T3, human CD40 extracellular domain …; experiment: SPR 37C, captured mAb
Procedure: as §1, §2

[6] = target: T4, human CD40 expressed on cells (human, UniProt P25942 21-277); experiment: cell-based or functional assay
[7] = target: T4, human CD40 expressed on cells; experiment: cell-based or functional assay; remark: listed apart in the source
[8] = target: T4, human CD40 expressed on cells; experiment: cell-based or functional assay; remark: listed apart in the source
[9] = target: T3, human CD40 extracellular domain …; experiment: ELISA, blocks 40 nM hCD40-mmH binding to coated 9His-hCD40L
Summary of the method: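 Antibodies (977 pM to 1 μM) were pre-mixed 1 h with 40 nM hCD40-mmH in PBS+0.5% BSA, then added for 1 h at room temperature to plates coated with 9His-hCD40L (5 μg/mL). Bound hCD40-mmH detected with HRP anti-c-Myc and TMB, OD450. Data fitted by four-parameter logistic; percent blocking calculated at highest concentration.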

T4 sequence (P25942 21-277): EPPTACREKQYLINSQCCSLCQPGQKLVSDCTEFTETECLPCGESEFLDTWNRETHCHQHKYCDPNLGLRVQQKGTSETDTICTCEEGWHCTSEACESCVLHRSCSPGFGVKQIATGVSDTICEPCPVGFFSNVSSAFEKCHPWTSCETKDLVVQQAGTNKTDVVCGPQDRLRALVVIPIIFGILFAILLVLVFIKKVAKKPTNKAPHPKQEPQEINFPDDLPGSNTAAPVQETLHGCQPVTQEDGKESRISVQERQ

B1: 21519P2 (antibody, human IgG4 S228P, kappa, V domains shown)
VH: QLQLQESGPGLVRPSETLSLTCSVSGASMNTNNYYWGWIRQPPGKGLEWIGSGYYNGNTYYNPSLKSRVTISVDTSKNQFSLKLNSVTAADTAVYYCARQTPPRIIGSPNIWGQGTMVTVSS
VL: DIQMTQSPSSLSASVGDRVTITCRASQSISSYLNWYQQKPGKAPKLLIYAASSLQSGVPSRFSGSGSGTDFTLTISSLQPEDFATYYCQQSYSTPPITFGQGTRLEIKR
notes: Parental bivalent anti-CD40 mAb; also called H4sH21519P2
- 100 nM Ag Bound (RU) [1]: 10.3 RU
- 100 nM Ag Bound (RU) [2]: 0.4 RU
- 100 nM Ag Bound (RU) [3]: 99 RU
- 100 nM Ag Bound (RU) [4]: 1.6 RU
- 100 nM Ag Bound (RU) [5]: 105 RU
- IC50, NFkB-luc Ramos, 500 pM hCD40L [6]: 3.09e-11 M
- Max % activation, NFkB-luc Ramos, no ligand [6]: 13%
- Max % inhibition, NFkB-luc Ramos, 500 pM hCD40L [6]: 88%
- IC50, NFkB-luc Raji, 900 pM hCD40L [7]: 6.05e-11 M
- Max % activation, NFkB-luc Raji, no ligand [7]: 15%
- Max % inhibition, NFkB-luc Raji, 900 pM hCD40L [7]: 92%
- IC50, NFkB-luc THP-1, 10 nM hCD40L [8]: 0.276 nM
- Max % activation, NFkB-luc THP-1, no ligand [8]: 5%
- Max % inhibition, NFkB-luc THP-1, 10 nM hCD40L [8]: 99%
- % Blocking at highest mAb concentration [9]: 94%
